Experiment: yeast display, Sf9 membrane polyspecificity reagent, FACS + sequencing; frameworks hold sequencing errors
How it was run: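 A synthetic nanobody library was expressed on Saccharomyces cerevisiae BJ5465 by galactose induction for 36–48 hours. The library was stained for 1 hour at 4 °C with 10% biotinylated, detergent-solubilized Sf9 membrane reagent and enriched with streptavidin microbeads before FACS. Low and high (top ~1%) gates were set on anti-HA fluorescence for expression and streptavidin fluorescence for reagent binding, and each polyreactivity label reflects the gate of origin.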

Sequence | polyreactivity (PSR sort gate)
QVQLVESGGGLVQAGGSLRVSCAASGSIFKIYAMGWYRLAPGKERELVASITGSGGSTYYADSVKGRFTISRDNAKNTVYLQRNCLKPEDTAVYYCAAAVLGSSKSEVDPDRPEYYYWGQGTQVTVSS | low polyreactivity
QVQLVESGGGLVQAGGSLRLSCAASGRIFSSYTMGWYRQAPGKERELVAAISWRGGSTYYADSVKGRFTISRDNAKNTVYLQMNSLKPEDTAVYYCAADSRSHPGDYWGQGTQVTVSS | low polyreactivity
QVQVVESGGGLVKAGGSLRLSCAASGGTFGNYAMGWYRQAPRKERELVAAINRSDGGTYYADSVKGRFTISRDNAKNTVYLQMNSLKPEDTAVYYCNAVDFYYDEPYDYWGQGTQVTVSS | low polyreactivity
QVQLVESGGGLVQAGGSLRLSCAASGFTFNWYAMGWYRQAPGKERELVAAINSSGGNTYYADSVKGRFTISRDNAKNTVYLQMNSLKPEDTAVYYCAALLWGYVAFDYWGQGTQVTVSS | high polyreactivity
QVQLVESGGGLVQAGGSLRLSCAASGSIFRGYAMGWYRQAPGKERELVAAINSSGGRTYYADSVKGRFTISRDNAKKTVYLQMNSLKPEDTAVYYCNARSKYPSYFSSMGYWGQGTQVTVSS | high polyreactivity
QVQLVESGGGLVQAGGSLRLSCAACGRIFNRYAMGWYRQAPGKERELVAAIRYSGGRTYYADSVKGRFTISRDNAKNTVYLQMNSLKPEDTAVYYCAADGQWYYAPFRGGDYENDYWGQGTQVTVSS | low polyreactivity
QVQLVESGGCLVQAGGSLRLSCAATGRTFHGYAMGWYRQAPGKERELVAAITSSGARTYYADSVKGRFTISRDNAKNTVYLQMNSLKPEDTAVYYCAKRGKQYRKMNYWGQGTQVTVSS | high polyreactivity
QVQLVESGGGLVQAGGSLRLSCAASGSIFISNAMGWYRQAPGKERELFAAINWTTGRTRYADSVKGRFTISRDNAKNTVYLQMNSLKPEDTAVYYCAARPYGGGRRSIYYYWGQGNQVTVSS | high polyreactivity
QVQLVESGGGLVQAGGSLRLSCAASGRIFFRNAMGWYRQAPGKERELVAVINTGGSTNYADSVKGRFTISRDNAKNTVFLQMNSLKPEDTAVYYCAVDRASRRTYNQYGFWGQGTQVTVSS | high polyreactivity
QVQLVESGGGLVQAGGSLRLSCAASGFNVRYYAMGWYRQAPGKERELVAAISSGGNTRYADSVKGRFTISRDNAKNTVYLQMNSLKPEDTAVYYCARRPGAWKYVYTGDYWGQGTQVTVSS | high polyreactivity
QDQLVESGGGLVQAGGSLRLSFAASGATFKRYAMGWYRQAPGKERELVATINSGTSTNYADSVKGRFTISRDNAKNTVYLQMNSLKPEDTAVYYCAKTFRRSVGGYGYDYWGQGTQVTVSS | low polyreactivity
QVQLVESGGGLVQAGGSLRLSCAANTMGCYRQAPGKERELVAAINTGSSTYYADSVKGRFRISRDNAKNTVYLQMYCLKPEDTAVYYCNASYPPYFEYRTRQYNYWGQGTQVTVSS | low polyreactivity
QVQLVESGGGLVQAGGSLRLSCAASGSIFYGYAMGWYRQAPGKERELVAAISWSGTSTYYADSVKGRFTISRDNAKNTVYLQMNSLKPEDTAVYYCAADQFQGNSGFEYWGQGTQVTVSS | low polyreactivity
QVQLVESGGGLVQAGGSLRLSCAASGSIFGRYVMGWYRQAPGKERELVATISSGGSTYYADSVKGRFTISRDNAKNTVYLQMNSLKPEDTAVYYCAASYSRFVDWIGDPGYDYWGQGTQVTVSS | low polyreactivity
QVQLVESGGGLVQAGGSLRLSCAASGSIFISNAMGWYRQAPGKERELVAAITSSGGSTYYADSVKGRFTISRDNAKNTVYLQMNSLKPEDTAVYYCAARPGRNYYYWGQGTQVTVSS | high polyreactivity
QVQLVESGGGLVQAGGSLRLSCAASGFTFAGNAMGWDRPAPGKERELVAGISRRGGNTYYADSVKGRFTISRDTAKNTVYLQMNRLKPEDTAVYYCARYSSSYWGQGTQVTVSS | high polyreactivity
QVQLVESGGGLVQAGGSLRLSCAASGFTFASYAMGWYRQAPGKERELVAAITRRGGSTNYADSVKGRFTISRDNAKNTVFLQMISLKPEDTAVYYCNDLHGVWDPAYDYWGQGTQVTVSS | low polyreactivity
QVQLVESGGGLVQAGGSLRLSCAASGSIFSGYVKGWYRQAPGKDMELVAAISGSGGSTYYADSVKGRFTISRDNAKNTVYFQMNSLKPEDTAVYYCNVDRSPTHIVGYGYWGQGTQVTVSS | low polyreactivity
QVQLLESGGGLVQAGGSLRLSCAASGSTFCANAMGWYRQAPGKVWELVARITYSGGSTYYADSVKGRFTISRDNAKNTVYLQMNSLKPDDTAVYFCAADLPGKFDYWGQGTQVTVSS | low polyreactivity
QVQLVESGGGLVQAGGSLRLSCAASGRIFTSNAMGWYRQAPGKERELVAAISKSGGRTYYADSVKGRFTISRDNAKNTVYLQMNSLKPEDTAVYYCAKDNYWGQGTQVTVSS | high polyreactivity
QVQLVESGGGLVQAGGSLRLSCAASGRIFVRNAMGWYRQAPGKERELVADITNGGSTNYADSVKGRFTISRDNAKNTVYLQMNSLNPEDTAVYYCAADTLGVYDGDYWGQGTQVTVSS | low polyreactivity
QVQLVESGGGLVQAGGSLRLSCAASGSIFRTYVMGWYRQAPGKERELVAAITASGGRTYYADSVKGRFTISRDNAKNSVYLQMNSLKPEDTAVYYCAAVSRGRYADSFDHWGQGTQVTVSS | high polyreactivity

Sequence | polyreactivity (PSR sort gate)
QVQLVESGGGLVQAGGSLRLSCAASGSIFGYNDMGWYRQAPGKERELVAAITTSGDSTYYADSVKGRFTISRDNAKNTVYLQMTSLKPEDTAVYYCNGDGEVVDWYHPYYVEYDYWGQGTQVTVSS | low polyreactivity
QVQLVESGGGLVQAGGSLRLSCAASGSIFAKNAMGWYRPAPGTERELVAGIDFSGGSTYYADSVKGRFTISGDNAKNTVYLQMNSLKAEDTAVYYCAADWAYKYELDYWGQGNQVTVSS | low polyreactivity
QVQLVESGGGLDQAGGSLRLSCAASGSIFSYYAMGWYRQAPGKERELVAAITIRGGRTYYADSVKGRFTISRDNAKNTVYLQMNSLKPEDTAVYYCAADWLNSDPYNYWGQGTQVTVSS | low polyreactivity
QVQLVESGGGLVQAGGSLRLSCAASGRTFYKYVMGWYRQAPGKERELVAAITRSGGGTYYADSVKGRFTISRDNAKNTVYLQMNSLKPEDTAVYYCAVSGRSYYRSDYWGQGTQVTVSS | high polyreactivity
QVQLVESGGGLVQAGGSLRLSCAASGHIFPTNAMGWYRQAPGKERELVAVISESVGSTYYADSVKGRFTISRDNAKNTVYLQMNSLKPEDTAVYYCATQSRYPSLDADYDYWGQGTQVTVSS | low polyreactivity
QVQLEESGGGLVQEGGSLRISCAASGRTFLRYVMGWYRQAPGKERALVAAISSRGGSTYYADSVKGRFTISRDNAKNTVYLQMNSLKPEDTAVYYCAARFKVRDYPDGNYEYWGQGTQVTVSS | high polyreactivity
QVQLVESGGGLVQAGGSLRLSCAASGRIFGTYAMGWYRQAPGKERELVAAITSGGRTYYADSVKGRFTISRDNAKNTVYLQMNSLKPEDTAVYYCNAVRYYVYDRRFNYWGQGTQVTVSS | high polyreactivity
QVQLVDSGGGLVQAGGSLRLSCAASGFIFVGYGMGWYRQAPGKERELVAAIDGGGSTYYADSVKGRFTISRDNAKNTVYLQMNSLKPEDTAVYYCNALPAYGWYDYDYWGQGTQVTVSS | low polyreactivity
QVQLVESGGGLVQAGGSLRLSCAASGRSFPTYAMGWYRQAPGKERELVATISWSGGRTYYADSVKGRFTISRDNAKNTVYLLMNSLKPEDTAVYYCNAYISYRWYRWEYEYWGQGTQVTVSS | low polyreactivity
QVQLVESGGGLVQAGGSLRLSCAASGFIFAYYAMGWYRQAPGKERELVAAITNSGGSTYYADSVKGRFTISRDNAKNTVYLQMNSLKPEDTAVYYCAAVIRPRYYQVRPRYDYWGQGTQVTVSS | low polyreactivity
QVQLVESGGGLVQAGGSLRLSCAASGSTFVGNAKGWYRQAPGKERELVAAITGGGGSTYYADSVKGRFTISRDNAKNTVYLQMNSLKPEDTAVYYCARDRTDYYVCYVRYYYWGQGTQVTVSS | low polyreactivity
QVQLVQSGGGLVQAGGSLRLSCAASGRTIWANAMGWYRQAPGKESELVAAITTSGGSTNYADSVKGRFTISRDNAKNTVYLQMNSLKPEDTAVYYCNADPTYHVVNGVGYWGQGTQVTVSS | low polyreactivity
QVQLVESGGGLVQAGGSLRLSCAASGRIFPVYAMGWYRQAPGKERELVAAITSGVSTNYADSVKGRFTISRDNAKYTVYLQMNSLKPEDTAVYYCNKDYTTYPYYEYGYWGQGTQVTVSS | low polyreactivity
QVQLVESGGGLVQAGGSLRLSCAASGRTFQLNAMGCYRQAPGKERELVAAISTRGGSTYYADSVKGRFTISRDNAKNTVYLQMNSLKPEDTAVYYCAKDPSFTRGYKDGGGYDYWGQGTQVTVSS | high polyreactivity
QVQLVESGGGLVQAGGSLRLSCAASGRIFGRYAMGWYRQAPGKERELVARITFRGGNTYYADSVKGRFTISRDNAKNTVYLQMNSLKPEDTAVYYCNASKHNPYGGDYWGQGTQVTVSS | high polyreactivity
QVQLVESGGGLVQAGGSLRLSCAASGSTFPWYAMGWYRQAPGKEREVVAAISSSGGSTYYADSVKGRFTISRDKAKNTVYLQMNSLKPEDTAVYYCNAQHPGYYWGYDYWGQGTQVTVSS | high polyreactivity
QVQLVESGGGLVQAGGSLRLSCAASGFTFGRYALGWYRQAPGKERELVAAISFSGGRTYYADSVKGRFTISRDKAKNTVYLQMNSLKPEDTAVYYCAARRRQEHVGRSSYARYDYWGQGTQVTVSS | high polyreactivity
QVQLVESGGGLVQAGVSLRLSCDASGSILRENAMGWYRQAPGKERELVAVITRGGNTYYADSVKGRFTISRDNAKNTVYLQMNSLKPEDTAVYYCAAKRRERYGLTYGYWGQGTQVTVSS | high polyreactivity
QVQLEESGGGLVQAGGSLRFSCAASGSIFDYNAMGWYRQAPGTERELVAAITYSGGTTYADSVKGRFTISRDNAKNTVYLQMNSLKPEDTAVDYCAATSYDRFAYYYWGQGTQVTVSS | low polyreactivity
QVQLVESGGGLVQAGGSLRLSCAASGITFHYKAMGWYIQAPGKERELVATIRRGGITKYADSVKGRFTISRDNAKNTVYLQMNSLKPEDTAVYYCAAGYYSHGAWFDHWGEGTQVTVSS | low polyreactivity
QVQLVESGGGLVQAGGSLRLSCAASGSNFVKYVMGWSRQAPGKERELVAAITWRGGRTYYADSVKGRFTISRDNEKNTVYLQMNSLKPEDTAVYYCAAYDQSLYGRRYDYWGQGTQVTVST | high polyreactivity

Source: the nanobody polyreactivity screen of Harvey et al. (2022)
